Tests used:
[1] = target: T1, human CD38 on tumor cells (human, UniProt P28907 1-300); experiment: flow cytometry on Raji-CD47KO cells
T1 construct: whole, on cells; Endogenous CD38 of the cell lines; also called CD38 on Raji-CD47KO cells

[2] = target: T2, human CD47 on cells (human, UniProt Q08722 19-323); experiment: flow cytometry on human red blood cells
T2 construct: whole, on cells; Endogenous CD47 of the cells; also called CD47 on Daudi cells; CD47 on RBCs

binding result [1]: binds | binding result [2]: binds
B1: BEAT CD38/CD47-60 (bispecific antibody, human IgG1, kappa)
heavy 1: EVQLVESGGGLIQPGGSLRLSCAASGFTLSRNTMHWVRQAPGKGLEWVSVIYQSGVTRYADSVKSRFTISRDNSKNTLYLQMNSLRAEDTAVYYCARGRYGVAGGPGYAFDVWGQGTLVTVSSASTKGPSVFPLAPSSKSTSGGTAALGCLVKDYFPEPVTVSWNSGALTSGVHTFPAVLQSSGLYSLSSVVTVPSSSLGTQTYICNVNHKPSNTKVDKKVEPKSCDKTHTCPPCPAPELLGGPDVFLFPPKPKDTLMISRTPEVTCVVVDVSHEDPEVKFNWYVDGVEVHNAKTKPREEQYNSTYRVVSVLTVLHQDWLNGKEYKCKVNNKALPAPEEKTISKAKGQPREPAVYTLPPSREEMTKNQVKLVCLVTGFYPSDIAVEWESSGQPENNYYTTPPMLDSDGSFSLVSWLNVDKSRWQQGNIFSCSVMHEALHNRFTQKSLSLSPG
heavy 2: not shown
light: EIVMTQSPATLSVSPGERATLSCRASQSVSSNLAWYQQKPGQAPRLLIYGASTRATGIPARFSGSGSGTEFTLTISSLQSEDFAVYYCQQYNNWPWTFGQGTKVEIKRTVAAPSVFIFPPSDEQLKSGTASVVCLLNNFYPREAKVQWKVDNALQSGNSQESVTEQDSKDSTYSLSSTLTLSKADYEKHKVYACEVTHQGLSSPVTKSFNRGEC
notes: 2+1 biparatopic BEAT: anti-CD47-H2 arm on BEAT (A); BEAT (B) carries Fc distal anti-CD38-B6-D9 and Fc proximal anti-CD38-E2-RecA Fabs; BEAT (A): S239D + I332E + S324N, BEAT (B): S324N; also called BEAT CD38/47-60; BEAT 38/47-60

From patent US20240141062A1 (published 2024)
